This note sets out measurements from IntAct's records for PubMed 15350218.

The chains are these.
B1: Synaptotagmin-2 (Rattus norvegicus (Rat)), P29101 (parent)
chain: MRNIFKRNQEPIVAPATTTATMPLAPAAPADNSTESTGTGESQEDMFAKLKDKFFNEINKIPLPPWALIAMAVVAGLLLLTCCFCICKKCCCKKKKNKKEKGKGMKNAMNMKDMKGGQDDDDAETGLTEGEGEGEEEKEPENLGKLQFSLDYDFQANQLTVGVLQAAELPALDMGGTSDPYVKVFLLPDKKKKYETKVHRKTLNPAFNETFTFKVPYQELGGKTLVMAIYDFDRFSKHDIIGEVKVPMNTVDLGQPIEEWRDLQGGEKEEPEKLGDICTSLRYVPTAGKLTVCILEAKNLKKMDVGGLSDPYVKIHLMQNGKRLKKKKTTVKKKTLNPYFNESFSFEIPFEQIQKVQVVVTVLDYDKLGKNEAIGKIFVGSNATGTELRHWSDMLANPRRPIAQWHSLKPEEEVDALLGKNK

In the first assay the parent is B1. Conditions: with wnk1_rat Wnk1, Q9JIH7.
Sequence of wnk1_rat Wnk1, Q9JIH7 (Q9JIH7 whole entry): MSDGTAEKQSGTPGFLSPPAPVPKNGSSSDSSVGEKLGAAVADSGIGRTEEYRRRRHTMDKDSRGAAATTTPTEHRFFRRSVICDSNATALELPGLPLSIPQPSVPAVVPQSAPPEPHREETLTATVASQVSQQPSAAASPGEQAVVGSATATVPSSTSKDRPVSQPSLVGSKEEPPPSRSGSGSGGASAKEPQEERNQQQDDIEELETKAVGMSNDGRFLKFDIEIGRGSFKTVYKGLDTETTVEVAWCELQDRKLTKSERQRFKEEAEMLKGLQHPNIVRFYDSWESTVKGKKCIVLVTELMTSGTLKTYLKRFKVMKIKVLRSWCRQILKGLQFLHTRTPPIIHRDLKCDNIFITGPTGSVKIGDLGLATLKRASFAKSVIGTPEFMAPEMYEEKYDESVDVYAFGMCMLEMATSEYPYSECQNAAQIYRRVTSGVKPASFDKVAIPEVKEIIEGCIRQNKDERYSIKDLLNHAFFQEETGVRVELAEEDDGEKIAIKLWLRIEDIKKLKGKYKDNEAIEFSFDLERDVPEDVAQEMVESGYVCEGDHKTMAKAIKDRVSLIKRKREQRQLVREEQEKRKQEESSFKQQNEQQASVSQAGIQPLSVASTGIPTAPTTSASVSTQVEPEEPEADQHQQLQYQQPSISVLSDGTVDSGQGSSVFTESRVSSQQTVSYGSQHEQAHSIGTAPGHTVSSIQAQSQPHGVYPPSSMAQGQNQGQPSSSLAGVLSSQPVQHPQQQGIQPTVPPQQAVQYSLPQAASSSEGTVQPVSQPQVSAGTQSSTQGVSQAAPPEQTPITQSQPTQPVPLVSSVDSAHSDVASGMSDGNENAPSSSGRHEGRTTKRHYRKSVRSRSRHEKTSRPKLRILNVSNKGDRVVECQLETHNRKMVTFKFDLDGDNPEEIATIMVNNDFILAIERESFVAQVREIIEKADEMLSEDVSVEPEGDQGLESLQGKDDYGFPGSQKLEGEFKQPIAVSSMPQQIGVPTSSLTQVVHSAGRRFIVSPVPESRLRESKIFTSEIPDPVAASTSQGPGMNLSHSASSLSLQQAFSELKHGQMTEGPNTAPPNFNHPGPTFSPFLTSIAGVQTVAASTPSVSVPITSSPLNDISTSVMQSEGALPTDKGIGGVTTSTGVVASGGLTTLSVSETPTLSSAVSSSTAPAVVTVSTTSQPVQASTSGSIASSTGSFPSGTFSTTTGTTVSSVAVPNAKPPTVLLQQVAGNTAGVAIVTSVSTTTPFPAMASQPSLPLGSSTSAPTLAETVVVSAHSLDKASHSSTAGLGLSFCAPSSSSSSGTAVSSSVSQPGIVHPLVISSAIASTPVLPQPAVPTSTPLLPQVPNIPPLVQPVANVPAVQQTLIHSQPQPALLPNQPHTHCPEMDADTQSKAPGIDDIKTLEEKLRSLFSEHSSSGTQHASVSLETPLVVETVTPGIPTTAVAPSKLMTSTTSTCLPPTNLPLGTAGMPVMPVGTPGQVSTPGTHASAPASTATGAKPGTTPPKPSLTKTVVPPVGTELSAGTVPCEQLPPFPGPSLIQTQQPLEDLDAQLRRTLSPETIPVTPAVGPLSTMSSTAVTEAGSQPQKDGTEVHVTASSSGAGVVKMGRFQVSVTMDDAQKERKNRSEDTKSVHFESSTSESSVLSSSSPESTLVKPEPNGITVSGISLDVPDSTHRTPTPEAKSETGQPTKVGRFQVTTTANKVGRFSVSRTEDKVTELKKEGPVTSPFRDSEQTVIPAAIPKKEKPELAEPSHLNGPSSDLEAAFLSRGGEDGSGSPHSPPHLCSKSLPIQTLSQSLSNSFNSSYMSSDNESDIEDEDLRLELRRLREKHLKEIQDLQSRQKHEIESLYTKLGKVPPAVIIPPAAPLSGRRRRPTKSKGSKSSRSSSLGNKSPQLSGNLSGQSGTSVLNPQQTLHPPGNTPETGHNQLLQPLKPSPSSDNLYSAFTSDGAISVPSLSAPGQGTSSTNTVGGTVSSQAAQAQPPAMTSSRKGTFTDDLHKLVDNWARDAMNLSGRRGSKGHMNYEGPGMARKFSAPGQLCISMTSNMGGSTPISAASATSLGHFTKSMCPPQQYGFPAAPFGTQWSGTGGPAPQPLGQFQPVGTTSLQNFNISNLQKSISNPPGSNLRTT
Regarding MRNIFKRNQEPIVAPATTTATMPLAPAAPADNSTESTGTGESQEDMFAKLKDKFFNEINKIPLPPWALIAMAVVAGLLLLTCCFCICKKCCCKKKKNKKEKGKGMKNAMNMKDMKGGQDDDDAETGLTEGEGEGEEEKEPENLGKLQFSLDYDFQANQLTVGVLQAAELPALDMGGTSDPYVKVFLLPDKKKKYETKVHRKTLNPAFNETFTFKVPYQELGGKTLVMAIYSFDRFSKHDIIGEVKVPMNTVDLGQPIEEWRDLQGGEKEEPEKLGDICTSLRYVPTAGKLTVCILEAKNLKKMDVGGLSDPYVKIHLMQNGKRLKKKKTTVKKKTLNPYFNESFSFEIPFEQIQKVQVVVTVLDYDKLGKNEAIGKIFVGSNATGTELRHWSDMLANPRRPIAQWHSLKPEEEVDALLGKNK [D231S], the “effect of a mutation on the interaction” value is listed as “decreasing interaction”.

Another assay covers variants of B1. Conditions: with wnk1_rat Wnk1, Q9JIH7. This is another data set of the same source.
In the case of MRNIFKRNQEPIVAPATTTATMPLAPAAPADNSTESTGTGESQEDMFAKLKDKFFNEINKIPLPPWALIAMAVVAGLLLLTCCFCICKKCCCKKKKNKKEKGKGMKNAMNMKDMKGGQDDDDAETGLTEGEGEGEEEKEPENLGKLQFSLDYDFQANQLTVGVLQAAELPALDMGGTSDPYVKVFLLPDKKKKYETKVHRKTLNPAFNETFTFKVPYQELGGKTLVMAIYDFDRFSKHDIIGEVKVPMNTVDLGQPIEEWRDLQGGEKEEPEKLGDICTSLRYVPTAGKLTVCILEAKNLKKMDVGGLSNPYVKIHLMQNGKRLKKKKTTVKKKTLNPYFNESFSFEIPFEQIQKVQVVVTVLDYDKLGKNEAIGKIFVGSNATGTELRHWSDMLANPRRPIAQWHSLKPEEEVDALLGKNK [D310N], the “effect of a mutation on the interaction” value was “decreasing interaction”.
